Literature values in patent US20180228866A1, “COMPOSITIONS” (Sigmoid Pharma Limited, priority 2015, published 2018).

System: serum TNF-α, IFN-γ, IL-6
Conditions: within 1-4 hours after injection

For “OKT3: anti-CD3 mAb, administered as a systemic immunosuppressive agent during organ transplantation”, the “serum levels of proinflammatory cytokines such as TNF-α, IFN-γ, and IL-6” value is given as “markedly elevated”.
